Assay results: US20060099648A1, “Compositions and methods for epitope mapping” (priority 2000, published 2006)

What follows are binders tested against Human IgG (Calbiochem; San Diego Calif.) (human) (assay: IgG displaced from peptide pin; competitor MSP1-19).
QNSGC [Peptide# 14] showed a ΔF (%) of under 5%. For TEEDS [Peptide# 63], the ΔF (%) was under 5%. CPQNS [Peptide# 12] showed a ΔF (%) of under 5%. Work on GDKCV [Peptide# 38] yielded a ΔF (%) of under 5%. In the case of NSGCF [Peptide# 15], the ΔF (%) is reported as under 5%. Work on GCDAD [Peptide# 55] yielded a ΔF (%) of 7%. With SGCFR [Peptide# 16] the ΔF (%) was under 5%. For LLNYK [Peptide# 31], the ΔF (%) was under 5%. DAKCT [Peptide# 59] gave a ΔF (%) of under 5%. Work on ADAKC [Peptide# 58] yielded a ΔF (%) of under 5%. Binder PTCNE [Peptide# 47] has a ΔF (%) of under 5%. CKCLL [Peptide# 28] gave a ΔF (%) of under 5%. In the case of KQCPQ [Peptide# 10], the ΔF (%) is reported as under 5%. For SQHQC [Peptide# 3], the ΔF (%) was under 5%. For CFRHL [Peptide# 18], the ΔF (%) was under 5%. For NISQH [Peptide# 1], the ΔF (%) was under 5%. NNGGC [Peptide# 52] was tested, and the ΔF (%) was 6%. QCPQN [Peptide# 11] was tested, and the ΔF (%) was under 5%. With NPNPT [Peptide# 44] the ΔF (%) was under 5%. Work on YKQEG [Peptide# 34] yielded a ΔF (%) of under 5%. CLLNY [Peptide# 30] showed a ΔF (%) of under 5%. With EECKC [Peptide# 26] the ΔF (%) was under 5%. Binder DEREE [Peptide# 23] has a ΔF (%) of under 5%. Binder DKCVE [Peptide# 39] has a ΔF (%) of under 5%. With KCTEE [Peptide# 61] the ΔF (%) was 6%. HQCVK [Peptide# 5] showed a ΔF (%) of under 5%. ECKCL [Peptide# 27] showed a ΔF (%) of under 5%. Binder KQEGD [Peptide# 35] has a ΔF (%) of under 5%. Binder TCNEN [Peptide# 48] has a ΔF (%) of under 5%. CVENP [Peptide# 41] gave a ΔF (%) of under 5%. Work on LDERE [Peptide# 22] yielded a ΔF (%) of under 5%. PQNSG [Peptide# 13] showed a ΔF (%) of under 5%. With ISQHQ [Peptide# 2] the ΔF (%) was under 5%. Binder ENNGG [Peptide# 51] has a ΔF (%) of under 5%. With FRHLD [Peptide# 19] the ΔF (%) was under 5%. In the case of NGGCD [Peptide# 53], the ΔF (%) is reported as 10%. Work on QHQCV [Peptide# 4] yielded a ΔF (%) of under 5%. ENPNP [Peptide# 43] was tested, and the ΔF (%) was under 5%. QCVKK [Peptide# 6] gave a ΔF (%) of under 5%. Binder KCVEN [Peptide# 40] has a ΔF (%) of under 5%. RHLDE [Peptide# 20] showed a ΔF (%) of under 5%. In the case of DADAK [Peptide# 57], the ΔF (%) is reported as under 5%. EGDKC [Peptide# 37] was tested, and the ΔF (%) was under 5%. In the case of PNPTC [Peptide# 45], the ΔF (%) is reported as under 5%. NPTCN [Peptide# 46] showed a ΔF (%) of under 5%. AKCTE [Peptide# 60] gave a ΔF (%) of 5%. For GGCDA [Peptide# 54], the ΔF (%) was under 5%. For EREEC [Peptide# 24], the ΔF (%) was under 5%. Work on NENNG [Peptide# 50] yielded a ΔF (%) of 5%. LNYKQ [Peptide# 32] was tested, and the ΔF (%) was under 5%. CTEED [Peptide# 62] showed a ΔF (%) of under 5%. QEGDK [Peptide# 36] was tested, and the ΔF (%) was under 5%. CDADA [Peptide# 56] showed a ΔF (%) of under 5%. Work on REECK [Peptide# 25] yielded a ΔF (%) of under 5%. For KCLLN [Peptide# 29], the ΔF (%) was under 5%. Work on VENPN [Peptide# 42] yielded a ΔF (%) of under 5%. GCFRH [Peptide# 17] gave a ΔF (%) of under 5%. For NYKQE [Peptide# 33], the ΔF (%) was under 5%. For CNENN [Peptide# 49], the ΔF (%) was 16%. With HLDER [Peptide# 21] the ΔF (%) was under 5%.
